For one substance, response (resonance units) (resonance units) results are on record in article PMC3173129.

This experiment has as its target Orai3 N-terminal peptide aa 52–65 (human) (UniProt Q9BRQ5). The experiment can be described thus: SPR. (In SPR one partner is held on a chip, and binding of the other changes the refractive index at the surface.)

“Calmodulin from bovine testes (from UniProt P62157 1-149) (natural protein)” yielded a response (resonance units) (resonance units) of 207.
